Among the data in article PMC8441410, “Phospho‐regulated Bim1/EB1 interactions trigger Dam1c ring assembly at the budding yeast outer kinetochore” (The EMBO Journal, 2021) are binding result and decrease of the amount of Dam1c bound to Ndc80c with Bim1 up to 16 µM values, retold here.

Sequences and labels used below:
T1: Bik1-6xHis (S. cerevisiae, UniProt P11709 1-440)
T1 construct: Bik1, S. cerevisiae CLIP-170 homolog; Detected with an anti-penta-His antibody in SEC fractions; also called Bik1/CLIP-170; source: E. coli BL21 Rosetta, purified (HisTrap, gel filtration)
T1 sequence (looked up): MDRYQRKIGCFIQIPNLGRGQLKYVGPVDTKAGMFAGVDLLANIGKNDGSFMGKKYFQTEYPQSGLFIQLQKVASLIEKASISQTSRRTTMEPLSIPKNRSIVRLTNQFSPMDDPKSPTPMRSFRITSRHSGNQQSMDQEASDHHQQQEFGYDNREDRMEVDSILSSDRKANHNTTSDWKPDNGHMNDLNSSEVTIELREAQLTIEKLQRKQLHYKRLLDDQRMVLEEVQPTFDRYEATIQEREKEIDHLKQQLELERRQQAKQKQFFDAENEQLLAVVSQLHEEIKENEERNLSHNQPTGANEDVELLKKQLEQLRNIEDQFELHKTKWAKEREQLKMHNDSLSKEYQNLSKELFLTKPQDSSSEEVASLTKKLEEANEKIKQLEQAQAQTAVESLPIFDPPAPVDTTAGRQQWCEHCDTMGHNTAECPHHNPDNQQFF

B1: Duo1 subunit within recombinant Dam1^WTc (natural protein, S. cerevisiae, UniProt P53168 1-247, looked up)
chain: MSEQSQLDDSTIDKLIPQIFNEMRSNLNNTTNKFPKSTGGGASDNISANSNSIRSFNSITTQSLLKESESLDKITAMIKNVTAALKNNLPVYVNQVHEVCKSTNSILDSWINIHSQAGYIHKLMSDQTYLKLINDRLHNENVNTNDEDGSTLHNVIALKKKEILDLRQKLENRKGEKDAAPAKPPNQGLNPRYGVQSGRRPVPSAGISNNGRVRKTHVPASKRPSGIPRVTNRWTKPTASSSRKMFR
notes: Duo1, subunit of the Dam1 complex, S. cerevisiae; Stood in the cross-linking experiment as a subunit of m1; source: E. coli, purified as part of Dam1c
B2: Dam1 subunit within recombinant Dam1^WTc (natural protein, S. cerevisiae, UniProt P53267 1-343, looked up)
chain: MSEDKAKLGTTRSATEYRLSIGSAPTSRRSSMGESSSLMKFADQEGLTSSVGEYNENTIQQLLLPKIRELSDSIITLDSNFTRLNFIHESLADLNESLGSLLYGIMSNSWCVEFSQAPHDIQDDLIAIKQLKSLEDEKNNLVMELSNMERGIKRKKDEQGENDLAKASQNKQFNQPLFPSSQVRKYRSYDNRDKRKPSKIGNNLQVENEEDYEDDTSSEASFVLNPTNIGMSKSSQGHVTKTTRLNNNTNSKLRRKSILHTIRNSIASGADLPIENDNVVNLGDLHPNNRISLGSGAARVVNGPVTKNRNSMFSGRAERKPTESRHSVAKKTEKKINTRPPFR
notes: Dam1, subunit of the Dam1 complex, S. cerevisiae; Stood in the cross-linking experiment as a subunit of m1; source: E. coli, purified as part of Dam1c
B3: Spc34 subunit within recombinant Dam1^WTc (natural protein, S. cerevisiae, UniProt P36131 1-295, looked up)
chain: MGESLDRCIDDINRAVDSMSTLYFKPPGIFHNAILQGASNKASIRKDITRLIKDCNHDEAYLLFKVNPEKQSVSRRDGKEGVFDYVIKRDTDMKRNRRLGRPGEKPIIHVPKEVYLNKDRLDLNNKRRRTATTSGGGLNGFIFDTDLIGSSVISNSSSGTFKALSAVFKDDPQIQRLLYALENGSVLMEEESNNQRRKTIFVEDFPTDLILKVMAEVTDLWPLTEFKQDYDQLYHNYEQLSSKLRFIKKEVLLQDDRLKTMSQYHPSSSHDVAKIIRKEKDEIRRLEMEIANLQE
notes: Spc34, subunit of the Dam1 complex, S. cerevisiae; Stood in the cross-linking experiment as a subunit of m1; source: E. coli, purified as part of Dam1c
B4: Spc19 subunit within recombinant Dam1^WTc (natural protein, S. cerevisiae, UniProt Q03954 1-165, looked up)
chain: MTDALEQSVLALEGTVSVLKDSVESLKCANEPSTNLASTMLQTKRVFRLVPEYDVERSKLDLIEEVEPLVRTLGDKLRKSMGRMQRELDTLQQTYELNDLRLKKNISMDDDDALNSPDMGQEYEGRDADDVVMMASSTNEELEELKKLKEKKKQLENKLEILKQK
notes: Spc19, subunit of the Dam1 complex, S. cerevisiae; Stood in the cross-linking experiment as a subunit of m1; source: E. coli, purified as part of Dam1c
B5: Dad4 subunit within recombinant Dam1^WTc (natural protein, S. cerevisiae, UniProt P69851 1-72, looked up)
chain: MENPHEQVQANILSRIIGNVKRLNESVAILNQELVTINNRNKNLEIMGAICDNYHSSVQFNLEATNNKKPPL
notes: Dad4, subunit of the Dam1 complex, S. cerevisiae; Stood in the cross-linking experiment as a subunit of m1; source: E. coli, purified as part of Dam1c
B6: Bim1 (yeast homolog of EB1), recombinant (natural protein, S. cerevisiae, UniProt P40013 1-344, looked up)
chain: MSAGIGESRTELLTWLNGLLNLNYKKIEECGTGAAYCQIMDSIYGDLPMNRVKFNATAEYEFQTNYKILQSCFSRHGIEKTVYVDKLIRCKFQDNLEFLQWLKKHWIRHKDESVYDPDARRKYRPIITNNSATKPRTVSNPTTAKRSSSTGTGSAMSGGLATRHSSLGINGSRKTSVTQGQLVAIQAELTKSQETIGSLNEEIEQYKGTVSTLEIEREFYFNKLRDIEILVHTTQDLINEGVYKFNDETITGHGNGNGGALLRFVKKVESILYATAEGFEMNDGEDELNDKNLGEHGTVPNQGGYANSNGEVNGNEGSNHDVIMQNDEGEVGVSNNLIIDEETF
notes: Bim1, S. cerevisiae microtubule plus end-tracking protein; CH domain, linker, coiled coil, EBH domain, C-terminal ETF; also called Bim1/EB1; source: E. coli, purified (GSTrap, further steps as in Zimniak et al 2009)

The target of assay [1] is B6. Put plainly: cross-linking; BS3-H12/D12 600 µM, 35°C, 45 min; 60 µg Dam1c without or with 7.4 µg Bim1; cross-linked lysines identified by mass spectrometry. As to conditions: both partners purified.
Assay [2] deals with B2. The assay is described as above. As to conditions: both partners purified.
Assay [3] deals with B3. The assay is described as above. As to conditions: both partners purified.
Assay [4] deals with B1. The assay is described as above. As to conditions: both partners purified.
The target of the next assay is T1, Bik1-6xHis. Put plainly: SEC; analytical, Superose 6 Increase 3.2/300; 25 mM HEPES pH 7.4, 200 mM NaCl, 1 mM MgCl2, 0.5 mM TCEP, 2.5% glycerol; fractions by SDS-PAGE or Western blot; Dam1c with Bim1-Bik1 also at 5, 7.5, 10 µM input and at 100 mM NaCl. As to conditions: both partners purified. A general note: Size exclusion chromatography separates by hydrodynamic size, large species first.

The target in assay [5] is Dam1 complex, wild type (Dam1^WTc), recombinant, with Hsk3-6xHis (S. cerevisiae) (UniProt P53267). Nature of the assay: pull-down; Ndc80c-Flag on anti-Flag M2 agarose beads (loaded from Sf9 lysate, washed); Dam1c or Bim1 alone or Dam1c pre-incubated with increasing Bim1 (up to 16 µM), 4°C 15 min; 25 mM HEPES pH 7.4, 200 mM NaCl, 0.01% Triton X-100; eluted with 3xFlag peptide, SDS-PAGE.

As for B1, the binding result in assay [1], in assay [2] and in assay [3] was “binds” each time. Consider B2, for which the binding result in assay [1] is “binds”. On the same count and under the same terms, under B3 stands “binds”. As for B4, the binding result in assay [1] and in assay [4] was “binds” throughout. For B5, the binding result in assay [1] is “binds”. Regarding B6, in the assay with Bik1-6xHis, the binding result is given as “binds”. For the same molecule, the decrease of the amount of Dam1c bound to Ndc80c with Bim1 up to 16 µM in assay [5] stood at 30%.
